US20240092849A1 (MIT, published 2024)
One block for each binder: values may come before it. Bridge positions count the residues as written; N and C are the ends. Square brackets hold non-standard residues; d marks the D form. Ends that are not written are not given here. alpha‑4‑pentenylAla = alpha-4-pentenyl alanine, stapling residue joined by ring-closing olefin metathesis; Cha = N[C@@H](CC1CCCCC1)C(=O)O; Nle = CCCC[C@H](N)C(=O)O; Aib = CC(C)(N)C(=O)O

What was measured:
Mcl-1 [1] = molecular target: T1, Mcl-1 (human, UniProt Q07820 172-327, limits assumed); assay: biolayer interferometry, biotinylated peptide on streptavidin probe
T1 construct: Recombinant protein in solution assays; It was biotinylated in the on-bead screens; also called human Mcl-1; BioMcl-1 (biotinylated, in the bead screens)
Excerpt: We used biolayer interferometry to measure the kinetics of binding of stapled peptides to Mcl-1 (FIG. 1(b)). We generated biotinylated stapled peptides and attached these to a streptavidin-modified probe surface.

Mcl-1 [2] = molecular target: T1, Mcl-1; assay: fluorescence anisotropy competition with fluoresceinated Bim 21mer for Mcl-1
Excerpt: The standard errors reported are over three experiments.
Position 2e is usually conserved as small (alanine, glycine, serine) in natural BH3 sequences.

murine Mcl-1 = murine Mcl-1 (murine, UniProt P97287 1-331); assay: cell-based or functional assay
murine Mcl-1, sequence (P97287 whole entry): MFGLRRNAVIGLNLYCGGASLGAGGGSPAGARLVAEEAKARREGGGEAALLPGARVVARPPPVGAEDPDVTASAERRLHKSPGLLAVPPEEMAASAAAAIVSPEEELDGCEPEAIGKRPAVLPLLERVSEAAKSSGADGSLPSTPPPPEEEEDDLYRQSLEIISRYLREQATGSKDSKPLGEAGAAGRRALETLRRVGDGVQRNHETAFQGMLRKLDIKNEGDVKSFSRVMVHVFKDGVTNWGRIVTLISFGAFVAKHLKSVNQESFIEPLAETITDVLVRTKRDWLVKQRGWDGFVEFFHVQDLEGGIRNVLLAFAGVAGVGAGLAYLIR

T1 sequence (Q07820 172-327 limits assumed): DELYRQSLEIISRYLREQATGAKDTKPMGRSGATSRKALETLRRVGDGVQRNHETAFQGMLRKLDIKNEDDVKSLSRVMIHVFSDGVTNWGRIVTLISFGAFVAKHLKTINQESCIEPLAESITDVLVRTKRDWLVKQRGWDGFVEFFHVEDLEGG

B2: M1d (peptide)
peptide: IW[Nle]TQGLRRLGDEI[alpha‑4‑pentenylAla]AYY[alpha‑4‑pentenylAla]RR
modifications: staple 15-19
notes: Truncated, stapled variant of MS1, usually printed 'Mld'; also called Mld
- IC50 (Mcl-1 [2]): 350 nM

Binder: IW[Nle][Aib]QGLRRLGDEI[alpha‑4‑pentenylAla]AYY[alpha‑4‑pentenylAla]RR (staple 15-19, Stapled peptide IWBAibQGLRRLGDEIXAYYXRR) [M2d]
- IC50 (Mcl-1 [2]): 106 nM

Continued, values first:

- Kd (Mcl-1 [1]): 5 nM
B1: biotinylated M3d (peptide)
peptide: IW[Nle][Aib]QG[Cha]RRLGDEI[alpha‑4‑pentenylAla]AYY[alpha‑4‑pentenylAla]RR
modifications: staple 15-19; also: biotinylated, site and linker not given here
notes: also called M3d (biotinylated stapled peptide)

- BH3 profiling (mitochondrial membrane integrity, JC1 dye) in Mcl-1/Myc 2640 cells, EC50 (murine Mcl-1): 30 nM
- IC50 (Mcl-1 [2]): 72 nM
B3: M3d (peptide)
peptide: IW[Nle][Aib]QG[Cha]RRLGDEI[alpha‑4‑pentenylAla]AYY[alpha‑4‑pentenylAla]RR
modifications: staple 15-19
notes: Stapled peptide IWBAibQGChaRRLGDEIXAYYXRR
